From article PMC10566112

What follows are substances tested against dopamine D2 receptor labelled with mCherry (D2R-mCherry) (UniProt P14416).
Sequence of UniProt P14416 (P14416 whole entry): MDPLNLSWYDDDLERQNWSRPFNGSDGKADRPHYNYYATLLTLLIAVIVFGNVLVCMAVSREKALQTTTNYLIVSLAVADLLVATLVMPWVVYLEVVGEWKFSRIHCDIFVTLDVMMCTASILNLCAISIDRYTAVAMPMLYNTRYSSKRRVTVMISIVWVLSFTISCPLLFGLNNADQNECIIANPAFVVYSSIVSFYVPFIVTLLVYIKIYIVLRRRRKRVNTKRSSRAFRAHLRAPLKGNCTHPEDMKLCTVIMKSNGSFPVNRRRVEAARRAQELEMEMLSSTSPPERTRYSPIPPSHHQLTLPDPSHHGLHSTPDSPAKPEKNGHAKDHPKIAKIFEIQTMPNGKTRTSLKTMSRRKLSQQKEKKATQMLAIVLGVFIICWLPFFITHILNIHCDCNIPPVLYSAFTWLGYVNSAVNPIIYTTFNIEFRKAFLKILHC

intracellular cAMP level in HEK293 cells after stimulation of D2R with 1 μM sumanirole, as percent of control (stimulated nontransfected cells) (% of the control) | Substance
70.4 | Gαi3β1γ9 heterotrimer (Gαi3-Citrine with Gβ1 and Gγ9) (from UniProt P08754 1-354; P62873 1-340; O14610 1-69) (complex)
14.4 | Gαi3β1γ10 heterotrimer (Gαi3-Citrine with Gβ1 and Gγ10) (from UniProt P08754 1-354; P62873 1-340; P50151 1-68) (complex)
20 | Gαi3β1γ2 heterotrimer (Gαi3-Citrine with Gβ1 and Gγ2) (from UniProt P08754 1-354; P62873 1-340; P59768 1-71) (complex)
